Test results taken from publication PMC7876548, “Methylation of the D2 dopamine receptor affects binding with the human regulatory proteins Par-4 and Calmodulin” (microPublication Biology, 2021).
Square brackets hold non-standard residues; d marks the D form. Ends that are not written are not given here. * marks the point of attachment. K(5-FAM) = lysine labeled with 5-carboxyfluorescein (5-FAM), C-terminal, O=C(NCCCC[C@H](N*)C(=O)O)c1ccc2c(c1)C(=O)OC21c2ccc(O)cc2Oc2cc(O)ccc21; Arg(Me2s) = CN=C(NC)NCCC[C@H](N)C(=O)O

Biological target: T1, human calmodulin (human, UniProt P0DP23 1-149)
T1 construct: Calmodulin, human; in pET-17b; Purification adapted from McCluskey et al. 2007; also called CaM; His-Calmodulin; source: Rosetta E. coli, purified (Ni-NTA, Phenyl-sepharose)
Assay: fluorescence polarisation; anisotropy; fluorescently labelled D2 peptide at 0.025 µM final, Par-4 or CaM added from 10x stocks of 0-20 µM; 200 mM NaCl, 200 µM CaCl2, 50 mM Tris pH 7.5; room temperature, ten minutes; average of four trials
Details: both partners purified

| Kd | Binder |
| --- | --- |
| 136 nM | VYIKIYIVL[Arg(Me2s)]R[Arg(Me2s)]RKRVNTKRSSRAFRAHLRAPLKGN-{K(5-FAM)} (D2 dopamine receptor, human, amino acids 208-243 of the third intracellular loop; Same peptide as m1 but with symmetric dimethylarginine at 217 and 219; The C-terminal fluorophore is carried on an added lysine (K-5-FAM); source: synthetic peptide (21st Century Biochemicals); not shown: FLAG, N-terminal, kept) |
| 57.5 nM | VYIKIYIVLRRRRKRVNTKRSSRAFRAHLRAPLKGN-{K(5-FAM)} (D2 dopamine receptor, human, amino acids 208-243 of the third intracellular loop; The C-terminal fluorophore is carried on an added lysine (K-5-FAM) after residue 243; source: synthetic peptide (21st Century Biochemicals); not shown: FLAG, N-terminal, kept) |
